The EC50 (read off the curve) is the concentration at which the effect is half-maximal. For orientation: koff means a measure of how fast the partners let go of each other. Usually kon stands for the rate constant with which the complex forms. The term EC50 denotes the concentration giving half of the maximal effect.

These results are taken from US20220033508A1 (ADC THERAPEUTICS, published 2022).

For assay [1], the target named is T1, Recombinant human extracellular domain of IL13RA2-6His (27-343) (human, UniProt Q14627 27-343).
T1 construct: also called Human IL13RA2-6His; human IL13Rα2
T1 sequence: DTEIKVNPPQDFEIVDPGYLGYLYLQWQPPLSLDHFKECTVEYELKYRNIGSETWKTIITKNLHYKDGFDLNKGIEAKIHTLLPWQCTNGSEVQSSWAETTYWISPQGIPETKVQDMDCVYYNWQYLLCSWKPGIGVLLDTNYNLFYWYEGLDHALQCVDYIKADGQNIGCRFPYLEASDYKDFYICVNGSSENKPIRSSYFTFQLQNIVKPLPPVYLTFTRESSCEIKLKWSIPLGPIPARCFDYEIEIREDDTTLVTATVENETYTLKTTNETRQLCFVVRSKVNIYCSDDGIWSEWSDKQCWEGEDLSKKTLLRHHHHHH
Nature of the assay: ELISA on plate-coated human IL13RA2-6His, anti-human-HRP detection. The procedure:
(§1) Recombinant human extracellular domain of IL13RA2-6His (27-343) was obtained from Sino biological (Ref 10350-H08H). 50 μl of 1 μg/ml of human IL13RA2 in PBS was coated overnight at 4° C. on MaxiSorp ELISA plates. The following morning, the plate is washed with PBS/Tween20 0.02%. Each well has 200 μl of Superblock blocking buffer added and incubated at room temperature for 1 hour in an orbital shaker at 120 rpm. A dilution series of each antibody was prepared, with dilutions of each antibody variant in PBS/Tween20 0.02%. The antibodies are added to blocked antigen coated plates and incubated for 1 hour at room temperature with 120 rpm shaking on an orbital shaker. Plates are then washed 3-times with 200 μl of PBS/Tween20 0.02% and 75 μl of secondary antibody (Mouse anti-human-HRP diluted 1 in 4000 in PBS/Tween20 0.02%) is added to the wells and incubated for 1 hour at room temperature with 120 rpm shaking on an orbital shaker. Plates are then washed 3-times with 200 μl of PBS/Tween20 0.02%. To develop the ELISA, 75 μl of TMB-Turbo substrate is added to the wells and incubated at room temperature with 120 rpm shaking on an orbital shaker till a blue colour develops, the reaction is then stopped with the addition of 75 μl of 0.6 N HCl. Plates are read on the Envision at […] and curves are analysed using GraphPad prism software
In general terms: ELISA stands for enzyme-linked immunosorbent assay.

Assay [2] has as its target T1, Recombinant human extracellular domain …. Nature of the assay: Biacore (SPR), IL13RA2-6His on the sensor, bivalent antibody in solution. From the text: (§2) Biacore analysis using Human IL13RA2-6His coated sensor was used to calculate apparent affinity constants of the Clone 47 variants. A dilution series of the antibody variants were applied to the IL13RA2 sensor surface for 600 seconds […] to calculate the association constant Ka and buffer (HBS-EP+) was then applied for 1800 seconds to calculate the dissociation constant Kd. The ratio of the two constants will provide an apparent KD as the bivalency of the antibody will affect the binding kinetics.
(§3) Binding affinity of a chimeric (Ch) Clone 47 and select humanised variants to human IL13Rα2 was measured on Biacore.

Assay [3] has the same target. The assay is described as follows: ELISA on coated IL13RA2-6His; antibody kept 8 days, column headed 'EC50 45° C.'. The procedure: as §1
(§4) Binding of the variants listed in Table 3 to IL13Rα2 was also assessed by ELISA following incubation at 4° C. or 45° C. for 8 days. […] These binding data also indicate that the humanised variants VHAback/VKA and VHA3/VKA2 have improved stability properties as compared to the chimeric Clone 47.

Assay [4] shares this target. The assay is described as follows: ELISA on coated IL13RA2-6His; antibody kept 8 days, column headed 'EC50 4° C.'. The procedure:
as §1, §4

Assay [5] shares this target. Nature of the assay: Biacore (SPR), apparent KD, IL13RA2-6His on the sensor, bivalent antibody in solution.
Source text: as §2, §3
In general terms: In SPR one partner is held on a chip, and binding of the other changes the refractive index at the surface.

Assay [6] has as its target T2, IL13RA2 on NCI-H1299 cells (human, UniProt Q14627).
T2 construct: cell-surface protein on NCI-H1299 cells; Cell-borne form of the target; It is kept apart from m1, which is the recombinant His-tagged extracellular domain; The sheet's title names the antibodies 'anti-IL13RA2 IgG' and the cells 'NCI-H1299 cells'; also called IL13Rα2; Interleukin-13 receptor subunit alpha-2
T2 sequence (receptor chain, looked up): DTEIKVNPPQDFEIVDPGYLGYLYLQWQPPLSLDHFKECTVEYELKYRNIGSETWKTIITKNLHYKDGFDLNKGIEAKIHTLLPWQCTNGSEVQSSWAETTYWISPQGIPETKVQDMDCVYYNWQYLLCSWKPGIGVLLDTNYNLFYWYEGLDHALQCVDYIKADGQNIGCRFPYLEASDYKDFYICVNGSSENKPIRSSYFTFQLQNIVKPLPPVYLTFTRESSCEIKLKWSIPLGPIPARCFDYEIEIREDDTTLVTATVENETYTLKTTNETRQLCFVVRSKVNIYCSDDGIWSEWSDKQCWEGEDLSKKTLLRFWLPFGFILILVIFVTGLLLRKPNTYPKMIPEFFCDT
The assay is described as follows: flow cytometry on NCI-H1299 cells, Alexa Fluor 488 anti-human IgG detection. How it is done: NCI-H1299 cells were diluted to 2×10⁶ cells/mL in assay buffer (0.1% BSA/0.1% Sodium Azide in PBS) and 50 μL added per well to a 96-well-plate. The HuCL47 and Clone 47 antibodies were diluted to a top concentration of 40 μg/ml (266 nM) of and diluted 1:4 for 7 dilutions as well as buffer only. 50 μL of the antibody were added to 50 μL of cells to give a concentration of 20 μg/ml. The plate was incubated for 1 hour at room temperature, after which the plate was centrifuged and washed three times. A Goat F(ab′)2 Anti-Human IgG Alexa Fluor 488-conjugated antibody was used (Life Technologies Cat. No. H10120) at a 1 in 250 dilution for detection in assay buffer, 50 μL added to cells and after one hour of incubation at room temperature the cells centrifuged and washed as before, fixed with 7.5% formaldehyde and analysed on the Flow cytometer, with data analysis carried out using FlowJo.
Chimeric clone 47 and HuCL47 were compared in terms of their: binding to NCI-H1299 Cells by standard FACS analysis using NCI-H1299 cells and unmodified purified antibodies. In vitro cytotoxicity analysis was performed on both A375 and NCI-1299 cells, using a pyrollobenzodiazepine dimer (PBD) warhead conjugated to chimeric clone 47 and HuCL47.
A general note: In flow cytometry, cells or beads pass a laser one at a time.

B1: Clone 47 VHA / Clone 47 VKA (HuCL47) (antibody, V domains shown)
VH: QVQLVQSGAEVKKPGASVKVSCKASGYTFSNYLMNWVRQAPGQGLEWMGRIDPYDGDIDYNQNFKDRVTITRDTSASTAYMELSSLRSEDTAVYYCARGYGTAYGVDYWGQGTSVTVSS
VL: EIVLTQSPATLSLSPGERATLSCRASESVDNYGISFMNWYQQKPGQAPRLLIYAASRQGSGIPDRFSGSGSGTDFTLTISRLEPEDFAVYYCQQSKEVPWTFGGGTKLEIK
notes: Expressed as IgG in Expi293 cells; also called VHA/VKA; VHANKA
Regarding B1, the entries for the “EC50 (read off the curve)” value in assay [1] and in assay [6] were roughly 0.05 nM and roughly 0.04 µg/mL, respectively. In assay [2], the off-rate (koff) was found to be 1.12e-05 s⁻¹. Besides, in assay [2], the kon came out at 112000 M⁻¹ s⁻¹. Further, the EC50 in assay [3] is 0.0184 µg/mL; in assay [4], 0.0178 µg/mL. Also, in assay [5], the Kd was found to be 0.1 nM.

B2: Clone 47 VHAback / Clone 47 VKA (antibody, V domains shown)
VH: QVQLVQSGAEVKKPGASVKVSCKASGYTFSNYLMNWVRQAPGQGLEWIGRIDPYDGDIDYNQNFKDRATLTVDKSASTAYMELSSLRSEDTAVYYCARGYGTAYGVDYWGQGTSVTVSS
VL: EIVLTQSPATLSLSPGERATLSCRASESVDNYGISFMNWYQQKPGQAPRLLIYAASRQGSGIPDRFSGSGSGTDFTLTISRLEPEDFAVYYCQQSKEVPWTFGGGTKLEIK
notes: Expressed as IgG in Expi293 cells; also called VHAback/VKA
Take B2: in assay [2], the dissociation rate constant (koff) was found to be 5.3e-06 s⁻¹ and the kon is 115000 M⁻¹ s⁻¹. In addition, the EC50 in assay [3] amounted to 0.0164 µg/mL. The EC50 in assay [4] is 0.0456 µg/mL. Besides, the Kd in assay [5] came to 0.05 nM.

B3: Clone 47 VHA / Clone 47 VKA2 (antibody, V domains shown)
VH: QVQLVQSGAEVKKPGASVKVSCKASGYTFSNYLMNWVRQAPGQGLEWMGRIDPYDGDIDYNQNFKDRVTITRDTSASTAYMELSSLRSEDTAVYYCARGYGTAYGVDYWGQGTSVTVSS
VL: EIVLTQSPATLSLSPGERATLSCRASESVDNYGISFMNWYQQKPGQAPRLLIYAASRQGSGIPDRFSGSGSGTDFTLTISRLEPEDFAVYFCQQSKEVPWTFGGGTKLEIK
notes: Expressed as IgG in Expi293 cells; also called VHA/VKA2
On to B3, for which the koff in assay [2] worked out at 8.2e-06 s⁻¹. For the same molecule, the kon in assay [2] turned out to be 131000 M⁻¹ s⁻¹. For the same molecule, the results for the EC50 in assay [3] and in assay [4] were 0.0204 µg/mL and 0.148 µg/mL, respectively. The Kd in assay [5] was 0.06 nM.

B4: Clone 47 VHA3 / Clone 47 VKA2 (antibody, V domains shown)
VH: QVQLVQSGAEVKKPGASVKVSCKASGYTFSNYLMNWVRQAPGQGLEWMGRIDPYDGDIDYNQNFKDRVTITRDKSASTAYMELSSLRSEDTAVYYCARGYGTAYGVDYWGQGTSVTVSS
VL: EIVLTQSPATLSLSPGERATLSCRASESVDNYGISFMNWYQQKPGQAPRLLIYAASRQGSGIPDRFSGSGSGTDFTLTISRLEPEDFAVYFCQQSKEVPWTFGGGTKLEIK
notes: Expressed as IgG in Expi293 cells; also called VHA3/VKA2
Take B4: the EC50 worked out at 0.0123 µg/mL in assay [3] and 0.0258 µg/mL in assay [4].

B5: Clone 47 VHAback / Clone 47 VKA1 (antibody, V domains shown)
VH: QVQLVQSGAEVKKPGASVKVSCKASGYTFSNYLMNWVRQAPGQGLEWIGRIDPYDGDIDYNQNFKDRATLTVDKSASTAYMELSSLRSEDTAVYYCARGYGTAYGVDYWGQGTSVTVSS
VL: EIVLTQSPATLSLSPGERATLSCRASESVDNYGISFMNWFQQKPGQAPRLLIYAASRQGSGIPDRFSGSGSGTDFTLTISRLEPEDFAVYYCQQSKEVPWTFGGGTKLEIK
notes: Expressed as IgG in Expi293 cells; also called VHAback/VKA1
Turning to B5, the EC50 was 0.0128 µg/mL in assay [3] and 1.01 µg/mL in assay [4].

B6: Clone 47 VHA / Clone 47 VKA1 (antibody, V domains shown)
VH: QVQLVQSGAEVKKPGASVKVSCKASGYTFSNYLMNWVRQAPGQGLEWMGRIDPYDGDIDYNQNFKDRVTITRDTSASTAYMELSSLRSEDTAVYYCARGYGTAYGVDYWGQGTSVTVSS
VL: EIVLTQSPATLSLSPGERATLSCRASESVDNYGISFMNWFQQKPGQAPRLLIYAASRQGSGIPDRFSGSGSGTDFTLTISRLEPEDFAVYYCQQSKEVPWTFGGGTKLEIK
notes: Expressed as IgG in Expi293 cells; also called VHA/VKA1
On to B6, for which the koff in assay [2] came to 2.65e-05 s⁻¹. Besides, the kon in assay [2] amounted to 124000 M⁻¹ s⁻¹. The EC50 in assay [3] was found to be 0.0123 µg/mL; in assay [4] it was 0.0581 µg/mL. In assay [5], the Kd is 0.21 nM.

B7: chimeric (Ch) Clone 47 (antibody, V domains shown)
VH: QVQLQQPGAELVRPGASVKLSCKASGYTFSNYLMNWVKQRPEQDLDWIGRIDPYDGDIDYNQNFKDKAILTVDKSSSTAYMQLSSLTSEDSAVYYCARGYGTAYGVDYWGQGTSVTVSS
VL: not shown
notes: Chimeric antibody with the murine Clone 47 variable domains; also called chimeric Clone 47
Regarding B7, the entries for the “EC50 (read off the curve)” value in assay [1] and in assay [6] were roughly 0.04 nM and roughly 0.04 µg/mL, respectively. Further, in assay [2], the koff turned out to be 6.58e-05 s⁻¹. Also, the kon in assay [2] is 125000 M⁻¹ s⁻¹. For the same molecule, the EC50 in assay [3] turned out to be 0.0168 µg/mL; in assay [4], 0.0777 µg/mL. In addition, the Kd in assay [5] was found to be 0.53 nM.
